Results on 15 sequences are retold here after the DeepSol protein solubility set.

The data set is described as follows: soluble on expression in E. coli; label from the status in PepcDB or PDB records.
For “MGSDKIHHHHHHVGFLDGLMGGKQAPLVGLDISSSSVKLVELGQSASGQYVLERFATESFERGWIADGQIEKFDEVADAVRRVVSKSGTRSKRVAMAMPQSAVITKKIMLPAGLRDEELELQVESEANQYIPFSLDEVSLDFCVVGPSPSSVGDVEVLIAASRKDRVQDRQGLAEAAGLKPVVLDIESHASRLAMMRIVSALPNEGRDALVALFEIGAETTSLKVLRDEELLYDRDQAFGGSQLTQMISRQYGFSFEEAEQKKLASDLPEDYESSLLVPFVDSLAQEIGRALQYFFTSTPHHKVHYVMLGGGTATLPGLKERVTELTGFASMVVNPFEGMRLGSAVRESKLRREAPAYLTACGLAMRRFL”, the “soluble on expression in E. coli” value is reported as “not soluble”. Under “AATITTSGTVLPTVTVAGHRAAIDEAPPLYKGGQVGSGARMGVLGNTAVMDTPFSVTSYSAQVIENNQARSVADIAAMDPSVRMSSARSNINEDLTMRGFSVSSADFALNGLFGLTPYWRAPLESIERVEVIKGPSAALFGMAPGSSVGGVVNLVPKRAGDTP” stands “not soluble”.

For the sequence “MITFIGHVSKDVNVVDGKREIAYGGGVVMGAITSSLLGVKTKVITKCTREDVSKFSFLRDNGVEVVFLKSPRTTSIENRYGSDPDTRESFLISAADPFTESDLAFIEGEAVHINPLWYGEFPEDLIPVLRRKVMFLSADAQGFVRVPENEKLVYRDWEMKEKYLKYLDLFKVDSREAETLTGTNDLRESCRIIRSFGAKIILATHASGVIVFDGNFYEASFRSWSLEGRTGRGDTCTAAFLVGFVFKKMSIEKATKFAAAVTSVKMRHPGPLRREDLEAISGDQYF”, the “soluble on expression in E. coli” value is “not soluble”. In the case of “MAHHHHHHMRKKKTKDVPTVFIECALEGEGEKLCVRWLFGMGVGGKPYDADEYDATIVWVPSDYAFHGDKFTSPLRPIPTKNPVAVVRIPVYLCRKKALRSCGGNPMLLSVYGSYGECCDVVFENERLSLLDRGFVWGFAAVCGGSELGAAWHKAGCGLQRATSVNDFVSVSFYVQETGWCAAGQIVTHGSSAGVFVATAAMCVAPSLPLAVIALVPCVDCLTTLMDDSLPLTVSNWEEFGNPRDDADAYRLLRAMLPMDNIPSVGVALPHMLLLTAWHDTRVGFWESLAFTARLRAREMEEGAATR”, the “soluble on expression in E. coli” value is recorded as “soluble”.

For “MKHHHHHHPMGHMQTLIFLDLEATGLPSSRPEVTELCLLAVHRRALENTSISQGHPPPVPRPPRVVDKLSLCIAPGKACSPGASEITGLSKAELEVQGRQRFDDNLAILLRAFLQRQPQPCCLVAHNGDRYDFPLLQTELARLSTPSPLDGTFCVDSIAALKALEQASSPSGNGSRKSYSLGSIYTRLYWQAPTDSHTAEGDVLTLLSICQWKPQALLQWVDEHARPFSTVKPMYGTPATTGTTNLR”, the “soluble on expression in E. coli” value is “soluble”. For the sequence “MGSDKIHHHHHHFDLEPSSSVPTDKVYKTADDFNVAVIGCYSKLQGQVSYFTECCEYRSDNLSLSAPTAGTQDRYDIDQFADKASNGILESAWANFNNGVYRCNLVLDKIDAADFDATLKKQYKGEALFVRALTYFNMYRLWGGIPMTDKVVTVAEALKIGRSSEQQVFDFLTGDLNQVINENMLPSSYTGTDTGRATSGAAMALLGKIYLTFHKWTEARNVLSQLIGRYSLMPTPDKVFDVDNKMNDEIIFAVRFNKDVEGEGHGYWFSIINLTDDTNQTKALKECYKDGDKRKDLITYVKVEDKVCVMNKFKDLKSATYNTVGNDQIILRYADVLLMYAEALNEISYSNSQTSDAMVALNAVHTRAGLSPVQITELADQDSFRKAIMLERQQEFPYEGHRWFDLVRMGGAKEAMKAEGHTIQDFQFLYPIPKTELERINNTELLWQNPGY”, the “soluble on expression in E. coli” value was “not soluble”. On to “MARSITMQQRIEFGDCNPAGIVWYPNYHRWLDAASRNYFIKCGLPPWRQTVVERGIVGTPIVSCNASFVCTASYDDVLTIETCIKEWRRKSFVQRHSVSRTTPGGDVQLVMRADEIRVFAMNDGERLRAIEVPADYIELCS”, for which the “soluble on expression in E. coli” value is given as “soluble”. The entry for “MGSDKIHHHHHHMTTFHDLPLEERLTLARLGTSHYSRQLSLVDNAEFGEHSLLEGWTRSHLIAHVAYNAIALCNLMHWANTGEETPMYVSPEARNEEIAYGSTLNPDALRNLHEHSVARLDVAWRETSEDAWSHEVLTAQGRTVPASETLWMRSREVWIHAVDLGAVATFGDIPEVILRTLAAEITQKWTSQGAGEGLVLLDEPSSTRYPAAPGQDEVVVSGSLAGIVRYAAGRGSDGVTSSTGEVPEPPRWL” is “not soluble”.

For “MSLKTALDIIEHAEEHLIEKIAENMHTFGMPSTVGRVLGIIYMNRKPMTLSELSEATGMSKTRMSQVVREMIDANIAEKVFEKGVRKDLYDVEQDYYQTFISLFAANWTKVVSKNKVLYKKLNRELSDLLQRDGLTPEAEEKVNQLLNELKEWLHYYDWLSRLIEFFESEEVFRYVPKTKECSSLKEGGSHHHHHH”, the “soluble on expression in E. coli” value is on record as “soluble”.

For “VHFAPTITFLESPTSDHHWCIPFTVKGNPKPALQWFYNGAILNESKYICTKIHVTNHTEYHGCLQLDNPTHMNNGDYTLIAKNEYGKDEKQISAHFMGWPGID”, the “soluble on expression in E. coli” value is given as “soluble”.

“MSLNPTIQPYQFNIIKEQVAVLLNTYTSVNDATTVKTVQALCAEKINGLFPEEHPAVTILLDKVMDRRLTRARAEKYLDELKETVLPFKEPSTPQVTKVFRKVKKLKIPEWENMDLRNNTYVGWNDAGTQKIFILAYRENKLIGVHGTLSPTIVKGVCSICQTITNVSMFLATTKSGGDGTYTKKGNYICHDSDTCNQQLTQPEYLEAFMENVKAVKEGHHHHHH”: the “soluble on expression in E. coli” value is on record as “soluble”.

Consider “MGSDKIHHHHHHLSIARETGSILLIPSTTTLRRAFDFETTFNDSIQFVGEDLSRQLAEDLNASKITLTSCCAYRNLSTILFNDSRIIERIDGYFQNFRYFHPDSQKIVKKLFTFMDPVRKRVSFWNIIYWNIHPTNHRKKPEKSTVSIFSFVTFQLRVDEFLENVGISLTVRNARVIETNVANDDQALELPEEDAFAKTMMVGVHIRHGMDISMNSRNRIHGHVDTPIEYYKRAIQQISKIYENVAFIICSDNVAWARRNLKLGKETLHFFCPGPREVDMAILKSCDSVIISTGTFGWWSAYLNVNASPDVYYYKHWPAPGSVMEKMTNKTEYF”, for which the “soluble on expression in E. coli” value was “not soluble”. Consider “MGSDKIHHHHHHMSESKIDNRLWSSKARNLSPYVPGEQPQHDDLCKLNTNENPFPPSPKVGEAITKVLAQQADDLRLYPAPESEELRGALAALYNLDINQVFVGNGSDEVLALVFASFFLKNRPVLAPDISYSFYPVYANTFGIELVQIPLEADFSISPDAYRRPCSGIIIANPNAPTGLLLSLADIRKLAGEHSDSVIVIDEAYIDFAQLEEASAESQMSAISLINEFDNLLVTQTFSKSRSLAGLRVGMAFGNASLIEALTRMKNSFNSYPLDKLAQAGATASVLDVEYFEQTCQQVIDLRTSLTAELTALGYDVLPSHANFVFARPHDGAASQVAEVLREQGIIVRHFDKPRINEYLRITIGTPSQHERLINALKALQAVADVEAS”, for which the “soluble on expression in E. coli” value was “not soluble”. With “MGSDKIHHHHHHMATANKNLKATWVATVTNLDWPSVSSVAITDEAARVSKQKEELTGILDEIVAMKMNAVIFQVVPCADAFYASDLLPWSKYLTGTLGKNPGFDPLAYAIEQAHARNIELHAWVNPYRVSMNASDATIEELNNSSSDSPASVFKTHPEWTGTAANRFVLNPGIPEVQTWVSNIVEEIVTKYDVDAIQFDDYFYYETASSLLQDDATYQKYNTNFTTKADWRRNNTYSLVDTCHKKIAAVKANVLFGVSPAGVWRNKSDDPLGSDTQAGASNYDFAYADTRKWVIDGIIDYIAPQVYWPFAREVARYDVITQWWADTVSGTGTALYIGMALYKVGTASETEPDWTVEGGVPEITRQLDLNDSLTEVSGCMLFRHMFLRASQTQQVVDYLKLRWADV”, the “soluble on expression in E. coli” value is given as “not soluble”. Regarding “MRIDILTLFPGMFSGVLSESILKKAQEKGAVDIRLIDFREFADNKHKTVDDYPYGGGAGMVLKPQPIFDAVEHVTAGSPGARIILLCPQGERYTQKKAEELAKETHLVLICGHYEGYDERIRQYLATDEISIGDYILTGGELGAMVIVDSVVRLLPGVLGNEASPVDDSFSSGLLEYPQYTRPADFRGMKVPDILLSGNHQLIAEWREKESLRRTFLRRPDLLDEYPLTDKQKQWLKEWEKERE”, the “soluble on expression in E. coli” value is given as “soluble”.
